From patent publication US20250002610A1 (Genmab, published 2025)

T1: cynomolgus monkey DR4 with death domain deletion on ExpiCHO-S cells (cynomolgus monkey (Macaca fascicularis))
T1 construct: also called cynomolgus DR4
T1 chain: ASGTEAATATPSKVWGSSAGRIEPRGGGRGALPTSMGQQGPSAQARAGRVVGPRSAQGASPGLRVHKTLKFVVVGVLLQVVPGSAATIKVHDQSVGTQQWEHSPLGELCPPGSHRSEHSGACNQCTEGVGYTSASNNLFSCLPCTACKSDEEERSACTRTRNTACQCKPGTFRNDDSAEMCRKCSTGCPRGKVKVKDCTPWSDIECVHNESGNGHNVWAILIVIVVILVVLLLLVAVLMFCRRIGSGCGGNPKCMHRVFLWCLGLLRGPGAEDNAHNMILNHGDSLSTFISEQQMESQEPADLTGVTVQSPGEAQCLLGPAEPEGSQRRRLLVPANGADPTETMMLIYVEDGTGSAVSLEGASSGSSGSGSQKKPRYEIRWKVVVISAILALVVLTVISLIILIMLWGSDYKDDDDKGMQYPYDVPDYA

T2: FcγRIIb (CD32B/Fcgr2b Protein, Human, Recombinant (His & AVI Tag), Biotinylated) (human, UniProt P31994 43-217, limits assumed, biotinylated)
T2 construct: Bought reagent; not shown: His & AVI tag
T2 sequence (looked up): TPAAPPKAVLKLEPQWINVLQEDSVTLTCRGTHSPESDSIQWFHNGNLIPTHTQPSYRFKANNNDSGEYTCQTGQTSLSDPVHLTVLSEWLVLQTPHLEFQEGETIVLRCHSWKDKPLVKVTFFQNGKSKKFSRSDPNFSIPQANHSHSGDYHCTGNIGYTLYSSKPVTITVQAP

T3: FcγRIIa-R131 (CD32A Protein, Human, Recombinant (167 Arg, His & AVI Tag), Biotinylated) (human, UniProt P12318 34-218, limits assumed, biotinylated)
T3 construct: Bought reagent; not shown: His & AVI tag
T3 sequence (looked up): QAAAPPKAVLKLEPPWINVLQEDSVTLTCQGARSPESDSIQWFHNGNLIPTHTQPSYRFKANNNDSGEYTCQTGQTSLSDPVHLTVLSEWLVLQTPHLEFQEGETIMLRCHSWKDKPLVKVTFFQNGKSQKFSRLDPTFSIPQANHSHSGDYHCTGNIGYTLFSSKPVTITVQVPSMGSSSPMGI

B1: IgG1-DR4-FERR (antibody, V domains shown)
VH: QVQLQESGPGLVKPSGTLSLTCAVSGGSISSYSWWSWIRQPPGKGLEWIGELYHSGSTNYNPSLKSRVTISVDKSKNQFSLKLRSVTAADTAVYYCVRGVATIDYWGQGTLVTVSS
VL: QSALTQPPSASGSPGQSVTISCTGTSSDVGGYNFVSWYQQDPGKAPKLLIYEVTKRPSGVPDRFSGSKSGNTASLTVSGLQAEDEADYYCSSYAGSNNVMFGGGTKLTVLG
notes: Bivalent monoclonal IgG1 lambda
B2: IgG1-b12 (antibody)
heavy: not shown
light: EIVLTQSPGTLSLSPGERATFSCRSSHSIRSRRVAWYQHKPGQAPRLVIHGVSNRASGISDRFSGSGSGTDFTLTITRVEPEDFALYYCQVYGASSYTFGQGTKLERKRTVAAPSVFIFPPSDEQLKSGTASVVCLLNNFYPREAKVQWKVDNALQSGNSQESVTEQDSKDSTYSLSSTLTLSKADYEKHKVYACEVTHQGLSSPVTKSFNRGEC
notes: HIV gp120 antibody b12 with wild-type IgG1 Fc; also called IgG-b12

What was measured:
[1] = target: T1, cynomolgus monkey DR4 with death domain …; assay: flow cytometry, ExpiCHO-S cells expressing cynomolgus monkey DR4, n = 2
Protocol: (§1) Binding of BisG1-FAPα-FERL/DR4-FERR, BisG1-DR4-FEAL/b12-FEAR and IgG1-DR4-FERR to DR4 of various species commonly used for nonclinical toxicology studies was assessed by flow cytometry using ExpiCHO-S cells transiently expressing DR4 from different animal species. In contrast to other species, rodents only express one DR which has highest homology with human DR5. Therefore, ExpiCHO-S cells transiently expressing rat and mouse DR protein were used instead. All DR constructs lack the intracellular DD to avoid apoptosis of transfected cells upon DR(4) activation. IgG1-b12 was used as negative control.

[2] = target: T1, cynomolgus monkey DR4 with death domain …; assay: flow cytometry, ExpiCHO-S cells expressing cynomolgus monkey DR4, n = 3
Protocol: as §1

[3] = target: T2, FcγRIIb (CD32B/Fcgr2b Protein, Human, …); assay: SPR (Biacore 8K), His-tagged FcγRIIb captured on an anti-His chip, antibody as analyte, endpoint response against concentration
Protocol: (§2) Binding of BisG1-FAPα-FERL/DR4-FERR to immobilized human His-tagged FcγRs and FcRn was analyzed by SPR using a Biacore 8K SPR system (Cytiva). To this end, anti-His antibodies were covalently immobilized on the surface of Biacore Series S Sensor Chip CM5 (Cytiva, Cat. #29104988) using the Amine Coupling Kit (Cytiva, Cat. #BR100050) and a His Capture Kit (Cytiva, Cat. #29234602) according to the manufacturer's instructions. To assess antibody binding to immobilized human FcγRs, aliquots of the recombinant His-tagged FcγR proteins (Table 24) were diluted in HBS EP+Buffer pH 7.4 (Cytiva, Cat. #BR100669) and used to capture the FcγR proteins on the surface of the anti-His antibody-coated sensors using a flow rate of 10 μL/min and a contact time of 60 s. Captured levels ranged from 434 to 592 RU. After three start-up cycles of HBS-EP+Buffer, concentration ranges of BisG1-FAPα-FERL/DR4-FERR or IgG1-b12 antibodies (Table 25) were injected to generate binding curves on FcγR-captured sensors (active surface). For each antibody sample, a parallel flow cell without captured FcγRs was included (reference surface), which was used for RU background correction.
(§3) All sensorgrams were subtracted by the signal of the third start-up cycle with buffer only (mock analyte). […]

[4] = target: T3, FcγRIIa-R131 (CD32A Protein, Human, …); assay: SPR (Biacore 8K), His-tagged FcγRIIa-R131 captured on an anti-His chip, antibody as analyte, endpoint response against concentration
Protocol: as §2, §3

Row | Binder | EC50 [1] | EC50 [2] | binding result [3] | binding result [4]
1 | B1 | 1.94 mg/L | 1.01 mg/L | – | –
2 | B2 | – | – | binds | binds
